Data reported in paper PMC9396398, “Crystal structure of Ankyrin-G in complex with a fragment of Neurofascin reveals binding mechanisms required for integrity of the axon initial segment” (The Journal of Biological Chemistry, 2022).
Changes are numbered by the printed parent chain.

Assays:
Assay in all cases: ITC
AnkG R1-24 H384A = target: T1, AnkG R1-24 H384A (Rattus norvegicus)
T1 chain: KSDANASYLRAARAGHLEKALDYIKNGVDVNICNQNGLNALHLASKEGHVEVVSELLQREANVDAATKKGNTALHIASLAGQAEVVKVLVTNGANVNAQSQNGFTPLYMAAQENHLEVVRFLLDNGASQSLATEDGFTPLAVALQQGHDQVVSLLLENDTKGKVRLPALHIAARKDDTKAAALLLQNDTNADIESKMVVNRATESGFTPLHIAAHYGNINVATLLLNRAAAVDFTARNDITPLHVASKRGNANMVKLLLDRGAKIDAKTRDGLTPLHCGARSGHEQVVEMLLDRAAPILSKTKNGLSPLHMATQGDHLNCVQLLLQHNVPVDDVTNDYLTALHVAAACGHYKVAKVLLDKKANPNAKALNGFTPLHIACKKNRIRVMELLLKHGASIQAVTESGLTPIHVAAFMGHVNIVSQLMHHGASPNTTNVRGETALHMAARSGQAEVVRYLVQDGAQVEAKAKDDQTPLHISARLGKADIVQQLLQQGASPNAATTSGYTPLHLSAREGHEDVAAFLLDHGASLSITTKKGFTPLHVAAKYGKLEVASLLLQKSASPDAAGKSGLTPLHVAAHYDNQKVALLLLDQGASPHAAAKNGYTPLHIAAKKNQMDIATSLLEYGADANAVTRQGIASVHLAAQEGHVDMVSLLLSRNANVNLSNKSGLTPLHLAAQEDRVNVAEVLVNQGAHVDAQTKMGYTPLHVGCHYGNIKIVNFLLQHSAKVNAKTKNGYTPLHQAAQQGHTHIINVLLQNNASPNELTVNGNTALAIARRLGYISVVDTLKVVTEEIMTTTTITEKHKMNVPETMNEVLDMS

AnkG R1-24 R318A, Q351A = target: T2, AnkG R1-24 R318A, Q351A (Rattus norvegicus)
T2 chain: T1 chain with R281A, Q314A, A347H

AnkG R1-24 T339A, N341A = target: T3, AnkG R1-24 T339A, N341A (Rattus norvegicus)
T3 chain: T1 chain with T302A, N304A, A347H

B1: Nfasc ankyrin-binding domain (ABD, residues 1187-1214) (domain or fragment, UniProt P97685 1187-1214, looked up)
chain: SDDSLVDYGEGGEGQFNEDGSFIGQYTV
notes: also called Nfasc ABD; source: E. coli BL21 (DE3), purified (Ni-NTA, size-exclusion chromatography)
Kd (AnkG R1-24 H384A): 1.7 µM | Kd (AnkG R1-24 R318A, Q351A): 0.67 µM | Kd (AnkG R1-24 T339A, N341A): 2.5 µM
